This is an account of results in PMC3434267.

The target of assay [1] is mGluR5 (endogenous, mouse) (mouse (endogenous in brain, spinal cord and cultured cortical neurons)) (UniProt Q3UVX5). In words: co-IP.
Assay [2] addresses Homer (pan-Homer immunoprecipitation), DIV 14 cortical neurons (Figure 5c) (mouse (endogenous in cultured cortical neurons)). In words: co-IP.

Take ERK1/2, mouse forebrain (Figure 5b): the co-IP in Preso1^−/− brain, % of WT in assay [1] was 64.4 % of WT.
In assay [2], “mGluR5 (endogenous, mouse) (from UniProt Q3UVX5 19-1203) (receptor)” gave a co-IP in BDNF-treated Preso1^−/− neurons, % of untreated WT of 69.8%; a co-IP in DHPG-treated Preso1^−/− neurons, % of untreated WT of 54%; a co-IP in WT neurons after BDNF 30 min, % of untreated of 158%; a co-IP in WT neurons after DHPG 30 min, % of untreated (% of untreated) of 157. In assay [2], this substance came in with a co-IP in untreated Preso1^−/− neurons, % of untreated WT (BDNF series) of 65.3% and a co-IP in untreated Preso1^−/− neurons, % of untreated WT (DHPG series) of 47%.
